In patent US20240043504A1 (published 2024):
Where a chain is given by its changes, count along the chain named.

B1: mAb10915 (antibody, V domains shown)
VH: EVQLVESGGGLVQPGGSLRLSCAASGFTVSSNYMNWVRQAPGKGLEWVSVIYSGGSTFYADSVKGRFTISRHNSKNTLYLQMNSLRPEDTAVYYCARDLGGYFDYWGQGTLVTVSS
VL: not shown
B2: mAb10913 (antibody, V domains shown)
VH: EVQLVESGGGLVQPGGSLRLSCAASGFTFRNYEMNWVRQAPGKGLEWVSYITSSGSTMYYADSVKGRFTISRDNAKNSLYLQMNSLRAEDTAVYYCARDGFYYYYAMDVWGQGTTVTVSS
VL: QSVLTQPPSVSAAPGQKVTISCSGSSSNIGNNYVSWYQQLPGTAPKLLIYDNNKRPSGIPDRFSGSKSGTSATLGITGLQTGDEADYYCGTWDSSLSVGRVFGTGTKVTVLG
B3: mAb10914 (antibody, V domains shown)
VH: EVQLVESGGGLVQPGGSLRLSCAASGLIVSRNYMIWVRQAPGKGLEWVSVIYSGGSTFYADSVKGRFTISRHNSKNTLYLQMNSLRAEDTAVYYCARDLGTGGMDVWGQGTTVTVSS
VL: DIQLTQSPSFLSASVGDRVTITCWASQGISSYLAWYQQKPGKAPKLLIYAASTLQSGVPSRFSGSGSGTEFTLTISSLQPEDFATYYCQQLNSYPLTFGGGTKVEIKR
B4: mAb11006 (antibody, V domains shown)
VH: B1 VH with T28I, S31R, N35S, R86K, P87A, D98E, G100R
VL: DIQLTQSPSFLSASVGDRVTITCWASQGISSYLAWYQQKPGKAPKLLIYAASTLQSGVPSRFSGSGSGTEFTLTISSLQPEDFATYYCQLLNSYPYTFGQGTKLEIK
B5: mAb11008 (antibody, V domains shown)
VH: EVQLVESGGGLVQPGGSLRLSCAASGFTVSSNYMTWVRQAPGKGLEWVSVIYSGGSTFYADSVKGRFTISRHNSENTLYLQMNSLRAEDTAVYYCARDLAAAGTDYWGQGALVTVSS
VL: B4 VL with E81D, L90H, P95L
B6: mAb10964 (antibody, V domains shown)
VH: QVQLQESGPGLVKPSETLSLTCTVSGGSINNYYWIWIRQPPGKGLEWIGYIYHSGSTNYNPSLKSRVTISVDTSKNQFSLKVSSVTAADTAVYYCANMVRGVYEDDYWGQGTLVTVSS
VL: DIQMTQSPSSLSASVGDRVTITCRASQSISNYLNWYQQKPGKAPKLLIFAASSLRSGVPSRFSGSGSGTDFTLTISSLHPEDFATYYCQQNYNTPLTFGPGTKVDIKR
B7: mAb10998 (antibody, V domains shown)
VH: EVQLVESGGGLVHPGGSLRLSCAASGLTVSSNYMSWVRQAPGKGLEWVSVIYSGGSTYYADSVKGRFTISRHNSKNTLFLQMNSLRAEDTAVYYCARDRPITGTTLDVWGQGTTVTVSS
VL: DIQMTQSPSSLFASVGDRVTITCRASQSISSYLNWYQQKPGKAPKLLIYAASSLQSGVPSRFSGSGSGTDFTLTISSLQPEDFAFYYCQQTYSTPPITFGQGTRLEIK
B8: mAb10965 (antibody, V domains shown)
VH: EVQLVESGGGLIQPGGSLRLSCAASVFTVSYNYMSWVRQAPGKGLEWVSVIYSGGSTYYADSVKGRFTISRDNSKNTLYLQMNSLRAEDTAVYYCARALPGWGGSFEYFDYWGQGTLVTVSS
VL: not shown
B9: mAb10967 (antibody, V domains shown)
VH: EVQLVESGGGLVQPGGSLRLSCAASGFTVSSNYMSWVRQAPGKGLEWVSVIYPGGSTFYADSVKGRFTISRDNSKNTLYLQMNSLRAEDTAVYYCARDQRDFAWGQGTLVTVSS
VL: DIQMTQSPSSLSASVGDRVTITCQASQDISNYLNWYQQKPGKAPKLLIYDASNLETGVPSRFSGSGSGTDFTFTISGLQPEDIATYYCQQYDNLPPTFGQGTRLEIKR
B10: mAb10955 (antibody, V domains shown)
VH: EVQLVESGGGLVQPGGSLRVSCAASGFTVSRNYMSWVRQAPGKGLEWVSVIYSGGSTFYADSVKGRFTISRDNSKNTLYLQMNSLRAEDTAIYYCARYIPRFDPWGQGTLVTVSS
VL: B9 VL with Y36F, K42R, G77S, P96I
B11: mAb10954 (antibody, V domains shown)
VH: EVQLVESGGGLVQPGGSLRLSCAASGITVSSNYMSWVRQAPGKGLEWVSLIYSGGSTYYADSVKGRFTISRDNSKNTLYLQMNSLRVEDTAVYYCARDHGMAAAGYNYWGQGTLVTVSS
VL: B9 VL with S30N, N31K, S76N, G77S, I83F, Y87F, T97A, R103K, L104V
B12: mAb11010 (antibody, V domains shown)
VH: QVQLVESGGGVVQPGRSLRLSCAASGFTFSSYGMHWVRQAPGKGLEWVAVISYDGSYKYYADSVKGRFTISRDNSKNTLYLQMNSLRAEDTAVYYCAIDGGTVTTIFDYWGQGTLVTVSS
VL: not shown
B13: mAb10966 (antibody, V domains shown)
VH: EVQLVESGGGLVQPGGSLRLSCAASGLTVSSNYMSWVRQAPGKGLEWVSVIYSGGSTFYADSVKGRFTISRDNSKNTLYLQMNSLRPEDTAVYYCAREGRIAATGYGMDVWGQGTTVTVSS
VL: not shown
B14: mAb11002 (antibody, V domains shown)
VH: EVQLVESGGGLVQPGGSLRLSCAASGFTVSSNYMSWVRQAPGKGLEWVSVIYSGGSTFYADSVKGRFTISRHNSKNTLYLQMNSLRAEDTAVYYCAREGYGMDVWGQGTTVTVSS
VL: not shown
B15: mAb11004 (antibody, V domains shown)
VH: QVQLVESGGGVVQPGRSLRLSCVASGFTFSIYGMDWVRQAPGKGLEWVAVISYDGSNKYYADSVKGRFTISRDNSKNTLYLQMNSLRPEDTAVYYCAKDREAAADAFDIWGQGTMVTVSS
VL: DIQMTQSPSSVSASVGDRVTITCRASQGISSWLAWYQQKPGKAPKLLIYAASSLHSGVPSRFSGSGSGTDFTLTISSLQPEDFATYYCQQANSFRLTFGGGTKVEIK
B16: mAb10913 (antibody, V domains shown)
VH: B2 VH
VL: B2 VL
B17: mAb10956 (antibody, V domains shown)
VH: B3 VH with I28T, R31S, I35S, H72D, G100I, T101K, G102Y
VL: not shown
B18: mAb10914 (antibody, V domains shown)
VH: B3 VH
VL: B3 VL
B19: mAb10957 (antibody, V domains shown)
VH: B3 VH with L27V, I28T, R31S, I35S, H72D, Y79F, A87I, T101P, G102Y
VL: DIQLTQSPSFLSASVGDRVTITCRASQGISSYLAWYQQKPGKAPKLLIYAASTLQSGVPSRFSGSGSGTQFILTISSLQPEDFATYYCQQLNSYPGFTFGPGTKVDIKR

Each binder was assayed against receptor binding domain (RBD) portion of the SARS-CoV-2 Spike protein (amino acids Arg319-Phe541) ex (SARS-CoV-2) (assay: not given).

| Binder | IC50 |
| --- | --- |
| B1 | 0.321 nM |
| B2 | 0.217 nM |
| B3 | 0.98 nM |

What follows are binders tested against SARS-CoV-2 RBD-hFc (SARS-CoV-2) (assay: Luminex beads).

| Binder | binding result |
| --- | --- |
| B4 | binds |
| B5 | binds |
| B6 | binds |
| B7 | binds |
| B8 | binds |
| B9 | binds |
| B10 | binds |
| B11 | binds |
| B12 | binds |
| B13 | binds |
| B14 | binds |
| B15 | binds |
| B16 | binds |
| B17 | binds |
| B18 | binds |
| B19 | binds |
